Data set [1] deals with T1, O=[N+]([O-])c1ccc(O[C@H]2O[C@H](CO)[C@H](O)[C@H](O)[C@H]2O)cc1.
T1 construct: recombinant, E. coli BL21 Gold (DE3), pET28(a), N-terminal His-tag kept for kinetics (thrombin site); for crystals His-tag cut off at introduced TEV site
Put plainly: purified protein. Format: biochemical, Pedobacter panaciterrae.

Substrate in the data set “purified protein”: O=[N+]([O-])c1ccc(O[C@H]2O[C@H](CO)[C@H](O)[C@H](O)[C@H]2O)cc1
Put plainly: purified protein. In kind it is biochemical, Bacteroides fragilis. To be noted: 50 mM sodium phosphate pH 7.5.

Where [2] appears, read: 50 mM sodium phosphate pH 7.5, 25.0 °C.

The text below walks through data of paper PMC12002104, “Identification and Protein Engineering of Galactosidases for the Conversion of Blood Type B to Blood Type O” (Chembiochem, 2025).

Usually Km stands for the substrate concentration at which the rate is half of its maximum. As to PpaGal (Pedobacter panaciterrae), the Km in data set [1] (50 mM sodium phosphate pH 7.5) came out at 3.512 ± 0.413 mM.
What is called kcat is the number of substrate molecules converted per active site and unit of time at saturation. As for PpaGal (Pedobacter panaciterrae; W227Y), in data set [1] (setting [2]), the Km is 3.43 ± 0.34 mM and the turnover number (kcat) turned out to be 0.25 ± 0.01 s⁻¹.

B1: BfGalB (Bacteroides fragilis NCTC 9343) (protein)
chain: QERVYDISQFGLKANSKKNASPVVRKAIAKIKAECRDGEKVILRFPAGRYNFHEAGSTVREYYISNHDQDNPKKVGIALEDMKNLTIDGQGSEFVFYGRMIPVSLLRSENCVLKNFSIDFEQPHIAQVQVVENDPEKGITFEPAPWVDYRISKDSVFEGLGEGWVMRYSWGIAFDGKTKHVVYNTSDIGCPTKGAFEVAPRRICSPKWKDARLVPGTVVAMRGWGRPTPGIFMSHDVNTSLLDVKVHYAEGMGLLAQLCEDITLDGFGVCLKGDNDPRYFTTQADATHFSGCKGKIVSKNGLYEGMMDDAINVHGTYLKVIKRVDDHTLIGRYMHDQSWGFEWGRPGDDVQFVRSETMELIGKQNQITAIRPYDKGEIRGAREFSITFKEAIDPAINEKSGFGIENLTWTPEVLFAGNTIRNNRARGTLFSTPKKTVVEDNLFDHTSGTAILLCGDCNGWFETGACRDVTIRRNRFINALTNMFQFTNAVISIYPEIPNLKDQQKYFHGGKDGGIVIEDNEFDTFDAPILYAKSVDGLIFRNNVIKTNTEFKPFHWNKDRFLLERVTNVKISE
notes: recombinant, E. coli BL21 Gold (DE3), pET28(a), N-terminal His-tag, thrombin site
Regarding B1, in “purified protein”, the Km is 6.950 ± 0.710 mM and the kcat turned out to be 0.753 ± 0.082 s⁻¹.
